Results: patent US20260015399A1 (Boehringer Ingelheim, published 2026)
*1 amine or outer side, *2 acyl side, *3 side chain or, on linkers, in order; H or OH if unused. Side-chain parts run from the residue outwards. The star is where a group is joined. C18 diacid = O=C(O)CCCCCCCCCCCCCCCCC(=O)*; γGlu = O=C(O)[C@H](CCC(=O)[*:2])N[*:1]; Isovaleryl = CC(C)CC(=O)*; Ahx = NCCCCCC(=O)O

T1: human NPY2 receptor (human, UniProt P49146 1-381)
T1 construct: whole, on cells; also called hNPY2-R; hNPY2R
T1 sequence (looked up): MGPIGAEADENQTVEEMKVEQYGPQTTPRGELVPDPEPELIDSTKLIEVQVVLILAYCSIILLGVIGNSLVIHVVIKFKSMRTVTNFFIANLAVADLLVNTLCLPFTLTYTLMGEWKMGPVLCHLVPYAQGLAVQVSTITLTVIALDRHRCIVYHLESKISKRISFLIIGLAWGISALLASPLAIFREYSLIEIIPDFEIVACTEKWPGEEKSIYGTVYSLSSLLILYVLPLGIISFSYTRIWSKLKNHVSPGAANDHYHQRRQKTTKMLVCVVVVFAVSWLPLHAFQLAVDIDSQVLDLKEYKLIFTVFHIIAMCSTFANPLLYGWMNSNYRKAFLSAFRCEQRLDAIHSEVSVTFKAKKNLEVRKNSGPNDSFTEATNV

T2: human NPY5 receptor (human, UniProt Q15761 1-445)
T2 sequence (looked up): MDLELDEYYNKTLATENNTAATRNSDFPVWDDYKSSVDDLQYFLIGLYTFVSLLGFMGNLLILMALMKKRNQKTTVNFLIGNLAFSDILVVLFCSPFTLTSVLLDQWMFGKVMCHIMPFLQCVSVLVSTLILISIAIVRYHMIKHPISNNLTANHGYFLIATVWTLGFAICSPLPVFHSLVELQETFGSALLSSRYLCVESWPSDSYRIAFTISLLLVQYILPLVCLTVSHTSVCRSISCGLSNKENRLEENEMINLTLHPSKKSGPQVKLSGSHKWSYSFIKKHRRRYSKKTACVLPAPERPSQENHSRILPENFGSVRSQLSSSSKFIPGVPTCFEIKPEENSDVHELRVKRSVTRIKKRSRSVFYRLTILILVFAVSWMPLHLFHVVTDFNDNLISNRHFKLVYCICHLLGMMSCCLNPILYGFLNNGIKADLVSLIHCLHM


Columns and labels:
human NPY2 receptor [1] = biological target: T1, human NPY2 receptor; experiment: RLB: displacement of 125I-PYY(1-36) from hNPY2R membranes
human NPY2 receptor [2] = biological target: T1, human NPY2 receptor; experiment: cell-based or functional assay
human NPY5 receptor = biological target: T2, human NPY5 receptor; experiment: cell-based or functional assay

| Binder | Ki (human NPY2 receptor [1]) [nM] | EC50, HTRF cAMP Gi assay (human NPY2 receptor [2]) [nM] | EC50, HTRF cAMP Gi assay (human NPY5 receptor) [nM] |
| --- | --- | --- | --- |
| Isovaleryl-APEK([Ahx-γGlu-C18 diacid])PGADASPEKLQRYYVSLRHYYHKLTRQRY-NH2 (SMILES CC(C)CC(=O)N[C@@H](C)C(=O)N1CCC[C@H]1C(=O)N[C@@H](CCC(=O)O)C(=O)N[C@@H](CCCCNC(=O)CCCCCNC(=O)CC[C@H](NC(=O)CCCCCCCCCCCCCCCCC(=O)O)C(=O)O)C(=O)N1CCC[C@H]1C(=O)NCC(=O)N[C@@H](C)C(=O)N[C@@H](CC(=O)O)C(=O)N[C@@H](C)C(=O)N[C@@H](CO)C(=O)N1CCC[C@H]1C(=O)N[C@@H](CCC(=O)O)C(=O)N[C@@H](CCCCN)C(=O)N[C@@H](CC(C)C)C(=O)N[C@@H](CCC(N)=O)C(=O)N[C@@H](CCCNC(=N)N)C(=O)N[C@@H](Cc1ccc(O)cc1)C(=O)N[C@@H](Cc1ccc(O)cc1)C(=O)N[C@H](C(=O)N[C@@H](CO)C(=O)N[C@@H](CC(C)C)C(=O)N[C@@H](CCCNC(=N)N)C(=O)N[C@@H](Cc1c[nH]cn1)C(=O)N[C@@H](Cc1ccc(O)cc1)C(=O)N[C@@H](Cc1ccc(O)cc1)C(=O)N[C@@H](Cc1c[nH]cn1)C(=O)N[C@@H](CCCCN)C(=O)N[C@@H](CC(C)C)C(=O)N[C@H](C(=O)N[C@@H](CCCNC(=N)N)C(=O)N[C@@H](CCC(N)=O)C(=O)N[C@@H](CCCNC(=N)N)C(=O)N[C@@H](Cc1ccc(O)cc1)C(N)=O)[C@@H](C)O)C(C)C) [Compound 174] | 0.21 | – | – |
| Isovaleryl-APEK([Ahx-γGlu-C18 diacid])PEEDASPEELQQYYVSLRHYYHWLTRQRY-NH2 (SMILES CC(C)CC(=O)N[C@@H](C)C(=O)N1CCC[C@H]1C(=O)N[C@@H](CCC(=O)O)C(=O)N[C@@H](CCCCNC(=O)CCCCCNC(=O)CC[C@H](NC(=O)CCCCCCCCCCCCCCCCC(=O)O)C(=O)O)C(=O)N1CCC[C@H]1C(=O)N[C@@H](CCC(=O)O)C(=O)N[C@@H](CCC(=O)O)C(=O)N[C@@H](CC(=O)O)C(=O)N[C@@H](C)C(=O)N[C@@H](CO)C(=O)N1CCC[C@H]1C(=O)N[C@@H](CCC(=O)O)C(=O)N[C@@H](CCC(=O)O)C(=O)N[C@@H](CC(C)C)C(=O)N[C@@H](CCC(N)=O)C(=O)N[C@@H](CCC(N)=O)C(=O)N[C@@H](Cc1ccc(O)cc1)C(=O)N[C@@H](Cc1ccc(O)cc1)C(=O)N[C@H](C(=O)N[C@@H](CO)C(=O)N[C@@H](CC(C)C)C(=O)N[C@@H](CCCNC(=N)N)C(=O)N[C@@H](Cc1c[nH]cn1)C(=O)N[C@@H](Cc1ccc(O)cc1)C(=O)N[C@@H](Cc1ccc(O)cc1)C(=O)N[C@@H](Cc1c[nH]cn1)C(=O)N[C@@H](Cc1c[nH]c2ccccc12)C(=O)N[C@@H](CC(C)C)C(=O)N[C@H](C(=O)N[C@@H](CCCNC(=N)N)C(=O)N[C@@H](CCC(N)=O)C(=O)N[C@@H](CCCNC(=N)N)C(=O)N[C@@H](Cc1ccc(O)cc1)C(N)=O)[C@@H](C)O)C(C)C) [Compound 12] | 4.16 | 0.25 | > 5000 |
| Isovaleryl-APEK([Ahx-γGlu-C18 diacid])PEAPASPEELQRYYVSLRHYYNWLTRQRY-NH2 (SMILES CC(C)CC(=O)N[C@@H](C)C(=O)N1CCC[C@H]1C(=O)N[C@@H](CCC(=O)O)C(=O)N[C@@H](CCCCNC(=O)CCCCCNC(=O)CC[C@H](NC(=O)CCCCCCCCCCCCCCCCC(=O)O)C(=O)O)C(=O)N1CCC[C@H]1C(=O)N[C@@H](CCC(=O)O)C(=O)N[C@@H](C)C(=O)N1CCC[C@H]1C(=O)N[C@@H](C)C(=O)N[C@@H](CO)C(=O)N1CCC[C@H]1C(=O)N[C@@H](CCC(=O)O)C(=O)N[C@@H](CCC(=O)O)C(=O)N[C@@H](CC(C)C)C(=O)N[C@@H](CCC(N)=O)C(=O)N[C@@H](CCCNC(=N)N)C(=O)N[C@@H](Cc1ccc(O)cc1)C(=O)N[C@@H](Cc1ccc(O)cc1)C(=O)N[C@H](C(=O)N[C@@H](CO)C(=O)N[C@@H](CC(C)C)C(=O)N[C@@H](CCCNC(=N)N)C(=O)N[C@@H](Cc1c[nH]cn1)C(=O)N[C@@H](Cc1ccc(O)cc1)C(=O)N[C@@H](Cc1ccc(O)cc1)C(=O)N[C@@H](CC(N)=O)C(=O)N[C@@H](Cc1c[nH]c2ccccc12)C(=O)N[C@@H](CC(C)C)C(=O)N[C@H](C(=O)N[C@@H](CCCNC(=N)N)C(=O)N[C@@H](CCC(N)=O)C(=O)N[C@@H](CCCNC(=N)N)C(=O)N[C@@H](Cc1ccc(O)cc1)C(N)=O)[C@@H](C)O)C(C)C) [Compound 192] | 0.74 | – | – |
| Isovaleryl-APEK([Ahx-γGlu-C18 diacid])PEEDATPEEIQRYYESLRHYYNWLTRQRY-NH2 (SMILES CC[C@H](C)[C@H](NC(=O)[C@H](CCC(=O)O)NC(=O)[C@H](CCC(=O)O)NC(=O)[C@@H]1CCCN1C(=O)[C@@H](NC(=O)[C@H](C)NC(=O)[C@H](CC(=O)O)NC(=O)[C@H](CCC(=O)O)NC(=O)[C@H](CCC(=O)O)NC(=O)[C@@H]1CCCN1C(=O)[C@H](CCCCNC(=O)CCCCCNC(=O)CC[C@H](NC(=O)CCCCCCCCCCCCCCCCC(=O)O)C(=O)O)NC(=O)[C@H](CCC(=O)O)NC(=O)[C@@H]1CCCN1C(=O)[C@H](C)NC(=O)CC(C)C)[C@@H](C)O)C(=O)N[C@@H](CCC(N)=O)C(=O)N[C@@H](CCCNC(=N)N)C(=O)N[C@@H](Cc1ccc(O)cc1)C(=O)N[C@@H](Cc1ccc(O)cc1)C(=O)N[C@@H](CCC(=O)O)C(=O)N[C@@H](CO)C(=O)N[C@@H](CC(C)C)C(=O)N[C@@H](CCCNC(=N)N)C(=O)N[C@@H](Cc1c[nH]cn1)C(=O)N[C@@H](Cc1ccc(O)cc1)C(=O)N[C@@H](Cc1ccc(O)cc1)C(=O)N[C@@H](CC(N)=O)C(=O)N[C@@H](Cc1c[nH]c2ccccc12)C(=O)N[C@@H](CC(C)C)C(=O)N[C@H](C(=O)N[C@@H](CCCNC(=N)N)C(=O)N[C@@H](CCC(N)=O)C(=O)N[C@@H](CCCNC(=N)N)C(=O)N[C@@H](Cc1ccc(O)cc1)C(N)=O)[C@@H](C)O) [Compound 191] | 8.32 | – | – |
| Isovaleryl-APAK([Ahx-γGlu-C18 diacid])PEADAEPEEIQRYYVSLRHYYNWLTRQRY-NH2 (SMILES CC[C@H](C)[C@H](NC(=O)[C@H](CCC(=O)O)NC(=O)[C@H](CCC(=O)O)NC(=O)[C@@H]1CCCN1C(=O)[C@H](CCC(=O)O)NC(=O)[C@H](C)NC(=O)[C@H](CC(=O)O)NC(=O)[C@H](C)NC(=O)[C@H](CCC(=O)O)NC(=O)[C@@H]1CCCN1C(=O)[C@H](CCCCNC(=O)CCCCCNC(=O)CC[C@H](NC(=O)CCCCCCCCCCCCCCCCC(=O)O)C(=O)O)NC(=O)[C@H](C)NC(=O)[C@@H]1CCCN1C(=O)[C@H](C)NC(=O)CC(C)C)C(=O)N[C@@H](CCC(N)=O)C(=O)N[C@@H](CCCNC(=N)N)C(=O)N[C@@H](Cc1ccc(O)cc1)C(=O)N[C@@H](Cc1ccc(O)cc1)C(=O)N[C@H](C(=O)N[C@@H](CO)C(=O)N[C@@H](CC(C)C)C(=O)N[C@@H](CCCNC(=N)N)C(=O)N[C@@H](Cc1c[nH]cn1)C(=O)N[C@@H](Cc1ccc(O)cc1)C(=O)N[C@@H](Cc1ccc(O)cc1)C(=O)N[C@@H](CC(N)=O)C(=O)N[C@@H](Cc1c[nH]c2ccccc12)C(=O)N[C@@H](CC(C)C)C(=O)N[C@H](C(=O)N[C@@H](CCCNC(=N)N)C(=O)N[C@@H](CCC(N)=O)C(=O)N[C@@H](CCCNC(=N)N)C(=O)N[C@@H](Cc1ccc(O)cc1)C(N)=O)[C@@H](C)O)C(C)C) [Compound 198] | 1.38 | – | – |
| Isovaleryl-APEK([Ahx-γGlu-C18 diacid])PEADASPEEIQRYYVSLRHYYNWLTRQRY-NH2 [Compound 140] | 1.41 | – | > 5000 |
| Isovaleryl-APAK([Ahx-γGlu-C18 diacid])PEEEASPEELQRYYVSLRHYYNWLTRQRY-NH2 (SMILES CC(C)CC(=O)N[C@@H](C)C(=O)N1CCC[C@H]1C(=O)N[C@@H](C)C(=O)N[C@@H](CCCCNC(=O)CCCCCNC(=O)CC[C@H](NC(=O)CCCCCCCCCCCCCCCCC(=O)O)C(=O)O)C(=O)N1CCC[C@H]1C(=O)N[C@@H](CCC(=O)O)C(=O)N[C@@H](CCC(=O)O)C(=O)N[C@@H](CCC(=O)O)C(=O)N[C@@H](C)C(=O)N[C@@H](CO)C(=O)N1CCC[C@H]1C(=O)N[C@@H](CCC(=O)O)C(=O)N[C@@H](CCC(=O)O)C(=O)N[C@@H](CC(C)C)C(=O)N[C@@H](CCC(N)=O)C(=O)N[C@@H](CCCNC(=N)N)C(=O)N[C@@H](Cc1ccc(O)cc1)C(=O)N[C@@H](Cc1ccc(O)cc1)C(=O)N[C@H](C(=O)N[C@@H](CO)C(=O)N[C@@H](CC(C)C)C(=O)N[C@@H](CCCNC(=N)N)C(=O)N[C@@H](Cc1c[nH]cn1)C(=O)N[C@@H](Cc1ccc(O)cc1)C(=O)N[C@@H](Cc1ccc(O)cc1)C(=O)N[C@@H](CC(N)=O)C(=O)N[C@@H](Cc1c[nH]c2ccccc12)C(=O)N[C@@H](CC(C)C)C(=O)N[C@H](C(=O)N[C@@H](CCCNC(=N)N)C(=O)N[C@@H](CCC(N)=O)C(=O)N[C@@H](CCCNC(=N)N)C(=O)N[C@@H](Cc1ccc(O)cc1)C(N)=O)[C@@H](C)O)C(C)C) [Compound 199] | 2.87 | – | – |
